From the DeepSol protein solubility set

Assay: soluble on expression in E. coli; label from the status in PepcDB or PDB records
For “MAHHHHHHMQHSLRGDFVTQRSTCFRTEKERKQKALNLIKNENNAEGYFNNLNFNLEYTEELNEQITSLDPKTSIQELTNIFNDLNENRKKNFHYLIEALENVSLILAHQNDIPEKHRKSTWCKIKHDLQCDFIKEHPNIHSNFDVFIRKIQSIDEFISYIKECIHSWNNFTNEKKLQYFPKVYETYQSDKICKENNYKKINNKTECNPKESIKNESIPKECIPNENMKKECVPNGCMKKQCVPKECMKKECVTNGHMKKQCVPNECMKKQCVPKECMKKECVPNGCMKKECTPNKNDKNVNRTDINNQNKTNEKLCDKKEKKRLPSK”, the “soluble on expression in E. coli” value was “soluble”.
In the case of “MAHHHHHHMQKPIMIVGTSAPRRREIAQRHFGATYDLVYLSPDIDEKQIRDSDPFTLTRAIAQAKMDELRVKVARDAALQDRVAKRPGSVAITFDQVVDYHGEIREKPASEQQAAAFIHAYSNDNLGTVMTTVLYDFGTGKQVSMPNTTLTFYGEIPDETVARVVERGACLRTAGGFVVEDVDMKRCEIKIDPGTEEEVCGFCEKSVRALLEGVQRPWVQSDHCSDGKR”, the “soluble on expression in E. coli” value is reported as “not soluble”.
In the case of “MAHHHHHHMQTPNSECVGPESPKAGIASSCQGCPNASICASMPKGPDPDIELIRQRLSGVKRTVMVISGKGGVGKSTLTKELAFALGQMGLNVALVDLDICGPSLPRLMGVRGEDAHQSAAGIEPVLVDETVSMISMHYLLGDKNEAVLFRGPRKNGVIKMFLKDVIWGDVDIMLIDTPPGTSDEHITVASILQQCGGVTGAILITTPQLVAEADVKREVKFSHKAKLHLLGIVENMSGFVCPNCKESSVIFPRANSQGAGKRLSDEFGVPFWGEVPLDPVLMKACEEGVSLTDIVDGKSPTIEILQSVAAKLVASLEIE”, the “soluble on expression in E. coli” value is reported as “soluble”.
With “MAHHHHHHMQVWGLVGRLTLPPSSSGKARKGSRRIPAADARLSKGSVNNRGRFVHNNRRMDNTLSVVVEKPAGLRRQWIAWPRGKSRDDPYEAIVPLLHISHYLPPVMAEAASCLDVKASFFPSLFTAGDSASLSMPRGGRHAGGADTTFNGIQGQPRNSPDYYYLGNRGGDDGGSPLWAAPPMVRIEVWIDNIRITGSKSDVTLWEAQVLRNADSCHAYLGGTANRALRNTLFWGYDLIKLTVRYP” the “soluble on expression in E. coli” value was “not soluble”.
For “MAHHHHHHMRAVQLVQGRARMCCVPFLFWVCPPPHLFSLSLPTPSLRSCGARTSCVAERSHASRRGGCGLPSPLPAQPTSPPDTRTGDTCICAFSFTPDEVSQTMTDRCYRTLGLDRGAAEADIKRAYRRKALLFHPDRNPNGAEAFKALQGDYEEALTDARRRGARGGGVPPFSSMASPSWDPAAPAAGAAYRFARAAGTACPPFFPEPSPAPLFTDEELFADSIPGGWRDVCARRGASARGGDKAGGRNNAAGRTEEINGSNSCCSQEAAAADARWRRAHGARVPVSAYTFSGPVPPPPPLPSQPSPHLSSSSFTSFCTHTRARASVAGTGSRLSTQAQRNRFVSRECMWKSSSAEALSLDAKQEAGGAGKVGRSRGCDGYTGQNREPVCGSDTGESAEDRVYREAVLLQRRMPALSGKSRGAAAERTRTHSQSDRAFSTEGVPVGSNATFPATRGVYHQRSDLHTSSTTTTTTTSSSTKGERLEAALSQREALCRQCRDTETTLQHEVDDDHAPAFSDDGDASAHPDKGDGAGSTNAALGPSAAGPLAASGRDTSRAGDPFPVKQSACPESNSDDRLRGDLPHRDRIPDECPLLQSENPRGRYTPNPAEVAEMSDMEVYLLASVAEDINQKTQTVMTARLSKEPYSCSASTPRAHQHVYFTCTHPSACEDCYASGVSKCPLCGASGVDRSSPPPSATTTSSSIEKGGTTGASGACTGTRASLASSSAPSPETMYEPVRVHSVLTCGDADA”, the “soluble on expression in E. coli” value was “not soluble”.
With “MAHHHHHHMRGVSAAEIGKFRELQNHWWNPDGPLRTLHFFNPLRVKYINDTCRNFSKRSSLLASSGITPGMRILDVGCGGGILSESLVRLGGNVLGIDMCEESIAVAQQRREQVLQDVASCTLQNGAASLEYRYASLNTIAVEEKQQFDLVVASEVIEHVDDAPRFLQDLCDATKPGGLLIISTMDKSIRAAISHIAVAEYLTALVRPGTHDWSKFVPPKDLSRCALQHQVRQVDLQYIVACPNILMSLSTRQMQLAFSLSKRFDTGHYFWSGLKVTAPA” the “soluble on expression in E. coli” value was “not soluble”.
In the case of “MAHHHHHHMRHLYGPAPGCVLLSFDFNQMELRVLAHLSGDELLIKHLSSEYDVLSAMTRHITGLSDDEQVPPHLRETVKVVVYGLFYGMGLATMKERVKILMDSAHSVPSSQRKFTADTLLRAFHQRYPAAGKFLTRARIRAFHEARCVTLTGINDLSSEKDGNRRRQHSIARILQGSSSTLFQSAMVKVHERRHDIVPNLPAAPFALVLCIHDELIYSVVEGYVDVVARKIKGIMVEQAQVFSLRVPLRVSVKVGKTFGSLEKLDVP”, the “soluble on expression in E. coli” value is reported as “soluble”.
In the case of “MAHHHHHHMRKPGRKIVYVPDDDAQFLGSMSDPLPPRVSDLLRLKSPSMSDNGHAETGSNGTTGSPGYESIGNELLVSYGGYTLADGSGTLHPPTTRRNGAQLYKSLRKCCRFLRASLSDSMAPKLETDSESSWSCPSFCSSDPTSSSEYSDVSPQRGRRRAAKQANEQTGYNAMIVVQLRRLLHKRGLSTCGIKKVLVARLEQSDMQLSKSKEEGEEQKEQEELDGSAGECTKTERSEDVCSASCGNVSGRVTAAGPTSMLSSLLSFGSRLFRASTGSVSEGGHVSGLKRRRSV”, the “soluble on expression in E. coli” value is reported as “not soluble”.
With “MAHHHHHHMRNMNDKNNVHNNYYYLKLENVNNGWRNKELKNDITNENIYQFIGKKKKNYSSSEMSKNSYSTCNTNNNIYINYNNNNNMYNNYNNNIYKNLNNRNINYKGYKFKQNYHTNAYVNISKNRNYYYPSESKKLTNEYNKYDFDNLEKRECKIINDESYKIEETTDMENDMLYIHNDSLPSHQPTINNNTQELYHINNYNNNIYFYEPCEKDNYLDSSIKDIYFDIYSNDTSENIKNETNDIINVDQKGNKYEENNINISNNTHEYKTFVNDDKQLLLDHIKRLEYQNNIFLNNMLNMYYVCIDYIKLQDDKIKEHEQVINSQKEFISNLKKQLSSNDNTNVAYNININHINKYKHVTK” the “soluble on expression in E. coli” value was “not soluble”.
In the case of “MAHHHHHHMRPLASFRGNTQTMLYTPVQDKYSILMEDDKLRVGASSMQGWRSTMEDAHTIHLSLPGLPSHMASEDGAIAAVFDGHCGSKTSQTSAIRILEWITSMEAFGEGNMEKAIRDGFIAGDLAMQRSSPNEMSGCTGNCVLIVENHLYCGNVGDSRAVLCRDGTAIPLSEDHKPNLPRERERVLRAGGYIHNGRVNGVLSLSRALGDFAFKDSDLPPEAQAVTAIPDVVHLELTPQDEFVIIACDGVWDMVTNEKAVEIVRSEVADHSDLSLACERLMDACLSKVSTGAGTDNMTVIILQFKSFFLKKVESRFGAISCNAAE”, the “soluble on expression in E. coli” value is reported as “not soluble”.
In the case of “MAHHHHHHMRRWLRNVRGGLLHPRAARLMVSCGKTHGLHMVSTVSRNTETEDEEIRDNESFPHQDDDDESVTEISEEMMRSLPKAPPKLRSAGSLLSTEEQEQLTRMIFKAHYAGEGMGENDRAMWYQSALEIHWLEEWAYEEFDGQTQRDVARRAVKKAVLQRVDLHKPLAYIIGHQPFYGCDIRCSPPLLCPRPETEMWTHWLVRTWLSKIPETTQPLRVLDMCCGTGCVGIAIAKHVPSAQVTAVDILDEAIGASEENAKLNGLEASRFCTLKSDMFESFLVSNSGSLTGEDTKLDLKKKEPAAEHAGSFDIIVSNPPYVLPDQYTDLPPGIKLWESKLALVGDEKREQQQYLYFQELSEFGSLLLKPKAMRNPALCAAPNIVIEVGLQAEQVASVMEKSKLWENVEIHLDYAQQMRWITASSSH”, the “soluble on expression in E. coli” value is reported as “not soluble”.
With “MAHHHHHHMSAGSDARIYRCTFIKKEAVKKVIYRKYYRHKKIDTKIRKLRVSNEIKFTKKLASLNIDVPYIYFVDAKEKSLYFEYVKGCTINFILKNLKEYEPKIPICVGMVLAKIHNGNIIHGDYTTSNLILRNSFIQQNNLLDLKNNNSPYNFSDLENVKLCVIDFGLSFLSSSIEDKAVDLFVLLKTIKSFHSEFPSLEEDILEGYKMKSDNVNDIFTKLEIVKQRGRKRPMVG” the “soluble on expression in E. coli” value was “not soluble”.
With “MAHHHHHHMSARKFAGEYVSRHLDGLTVLASLADRPAAAKPVICTHNGSFHCDEAMACGLLRHVPEYREAVILRTRDPKQIDACDIVVDVGAIYDADTNRYDHHQASFHGTMTTPKKAYKTRLSSAGLVYKHFGRQIICEYVEAVLQPSSPARAAVLSMTSWSESRTGLSEAELDVLEDALYAHFVEQVDGIDNGVECWGLADPAVGTLVPNYTQSTSLSQRIGQLQAYWNEPENGDVVAENANFAVAVEMAVTEFFKALTYLSFSWLPARSIVEAAFQRRHEFDESGKIMVFKGVKACPWKDHLLELEAESNCLGAVLYVVFSDGKGWRVQAVPKTSTSFENRKPLPYRGLRDDALSAACGIEGGVFVHVSGFIGGMKTFDGAMALAKQALVVVN” the “soluble on expression in E. coli” value was “soluble”.
In the case of “MAHHHHHHMSCRRFHKVLQANEEENEHAREAFLASWRSEYQQFLQSKLAALVWHVEHHCRSHVTPQTATSMACGEVPRMKVATTAPNSTTTASTNSNSAMMAEDAEQHDACNVLAHKQNRRTTLPSHFFLEQTPTSMPFYPREFIVEKEAQMFRQTNSPFTVGETPHGSQHSRTEINASTATVVPLPSVHKKETADRNSEKDDDRTAILAVSPSPRQISMHSPSQIEDDGSLDASLSPAATVAVTNVLTRTPGPAVQLQKMLPTEEVSKANLRKTIARLYSESVDTRSSWSDTWSQKKQRAASLLPPPSSASHMMHLKTMHVSHGTPCENMEASRNDMLSKKQLICELRRLYGLEDER”, the “soluble on expression in E. coli” value is reported as “soluble”.
In the case of “MAHHHHHHMSDAQTVQTLVLWNGEWPYVKRGVSEVRAVAAGVIASANALVDVPAYLARARKYTAAADDFVTAQSARASSTLESHQWVVPAAGIALASVYVVVRSAPWGGMKMMRNGLVTAGALTAFMYPREIVHQIDRAMPFQAPASISEQKNES”, the “soluble on expression in E. coli” value is reported as “not soluble”.
In the case of “MAHHHHHHMSELKIGFLGCGSMGECIMAGLLKAKALGPENTFICNRSASTNERLVSLYQVKSVSAVELAEKSDIIMLGVKPYGIVPVLETIKEKITPSKLVVSMAAGVPIATIENHCPPKTKVVRVMPNIPSYVGEGVTSISGNSAVTPDDEAVVMKLFSAIGKSYLVAESAIHGVVGVAGSSPAYVFMFMEALSDGAVRGGIPRAQSYEMAAQAVLGAAKMLQDSGKTPSALKDMVCSPGGTTIEAVRFLEKGGMRSSIIEAMIQCMEKSKEFERMYSE”, the “soluble on expression in E. coli” value is reported as “soluble”.
For “MAHHHHHHMSIFGVSSYFLWTQKGQTVLPLVRGSGFVMSFQQLNTFYSYHVMSAAHVTCPVKHRKLYGDTIGLKAIGERHISTRLLIPDEATHRVQSSFELEFRQQYMPNTDVASLRLCKEEQFKKAMLPPQDSGTGTASPLQVILPDLDRIEEGDELILCGVHTEEERANPNDDGLVLNPMRLIATCKAALLSLDYGTVLLASIDGPAEEARESGSGSAASASRPVTVPPLPLSMCGGPVLRRSSGRCVGVIAARVMANAPPRDPQSTSLYQDPYLDISEHIALHAHWPLDVAFVPIGEFYDPLRRCEM”, the “soluble on expression in E. coli” value was “not soluble”.
In the case of “MAHHHHHHMSIIHYSLQYNCKSFCIFTYFLIPSYWKCSTYNIPQYRSQNKNNFISFCIQFLVQQCVLIIHKVFNLPNTSLRNYFPQINKQINNQTFLNVVVKRKLNHGKLWGAHV”, the “soluble on expression in E. coli” value is reported as “soluble”.
For “MAHHHHHHMSSDYSRVCAAEKASESHPPGYSRDALETELREGFRKQQQQVNKNRQVEQMALAKGLGESATTSLKDGFYIPHKVLPPLKPEEKKLFERIDIMKWCGRAGRKLEDSAVAPPPTLGEVPAEHQPMQVQEHQASTEADAEDALSTSVSSTASSLAALKDNSSEDVRHLLHQLRSTSRATSSLRDARAEVDDNIQAVEEALLRQSSPLSFEDLLDTAARLLAAMERGELTEDVVVPRGADVSTEKDEGSPGSPADSAEAPLSASGSTTRVLHGAVEVETYTRKHLLPRAYQVVAIAHTAEWILQYTMAYLRTTVAVNQDEAFTRLTLLARCVRLLGDIENFSSILLSLETKCEEYAGFAALKDTAEKHLGTLLDDVETSLDAILSAPFPSRRSRLLLLEGGIQKKLQRALLFLNEIDYSWTPHVRFHWAWKVQLLSASFHRIHGLISRKHMQCSMGFVDDSLYERVADTRITGRYMGASPVQPKVLRAQQVEYEKITEGLTFQQIGMSIKGVASLLIGEQLCMGARYILCQSTKQFDPVWGFHMDEISTAPTQEELSAMAAKIAVHAKEQLTARPTIARKEHSSSTFLTQM”, the “soluble on expression in E. coli” value was “not soluble”.
